Our source for the neutrophil adhesion on IC-coated microcapillaries with adhered platelets values is publication PMC12867151.

In this assay the target is human immune complexes (ICs): heat-aggregated human IgG (human).

Regarding “Fcγ receptor 2a (FcγRIIA), human, on human platelets (from UniProt P12318 34-317)”, the neutrophil adhesion on IC-coated microcapillaries with adhered platelets at 2 dyn/cm^2; neutrophils preincubated with a blocking antibody against FcγRIIA; inhibition against the isotype control (% inhibition of neutrophil adhesion) amounted to 86.3.

With “FcγRIIIB, human, on neutrophils (from UniProt O75015 17-200) (receptor)”, the neutrophil adhesion on IC-coated microcapillaries with adhered platelets at 2 dyn/cm^2; neutrophils preincubated with a blocking antibody against FcγRIIIB; inhibition against the isotype control (% inhibition of neutrophil adhesion) came out at 63.8.
